Source: PMC11931667, “A new view of missense mutations in α‐mannosidosis using molecular dynamics conformational ensembles” (Protein Science : A Publication of the Protein Society, 2025)

Target: the molecule itself
Test: native gel or EMSA; PAGE run under native conditions and Western blot with anti-His IgG of hLAMAN expressed in K. phaffii for the indicated time periods; single band at approx. 230 kDa

B1: Human lysosomal α‐mannosidase (enzyme, UniProt O00754 50-1011, looked up)
chain: GGYETCPTVQPNMLNVHLLPHTHDDVGWLKTVDQYFYGIKNDIQHAGVQYILDSVISALLADPTRRFIYVEIAFFSRWWHQQTNATQEVVRDLVRQGRLEFANGGWVMNDEAATHYGAIVDQMTLGLRFLEDTFGNDGRPRVAWHIDPFGHSREQASLFAQMGFDGFFFGRLDYQDKWVRMQKLEMEQVWRASTSLKPPTADLFTGVLPNGYNPPRNLCWDVLCVDQPLVEDPRSPEYNAKELVDYFLNVATAQGRYYRTNHTVMTMGSDFQYENANMWFKNLDKLIRLVNAQQAKGSSVHVLYSTPACYLWELNKANLTWSVKHDDFFPYADGPHQFWTGYFSSRPALKRYERLSYNFLQVCNQLEALVGLAANVGPYGSGDSAPLNEAMAVLQHHDAVSGTSRQHVANDYARQLAAGWGPCEVLLSNALARLRGFKDHFTFCQQLNISICPLSQTAARFQVIVYNPLGRKVNWMVRLPVSEGVFVVKDPNGRTVPSDVVIFPSSDSQAHPPELLFSASLPALGFSTYSVAQVPRWKPQARAPQPIPRRSWSPALTIENEHIRATFDPDTGLLMEIMNMNQQLLLPVRQTFFWYNASIGDNESDQASGAYIFRPNQQKPLPVSRWAQIHLVKTPLVQEVHQNFSAWCSQVVRLYPGQRHLELEWSVGPIPVGDTWGKEVISRFDTPLETKGRFYTDSNGREILERRRDYRPTWKLNQTEPVAGNYYPVNTRIYITDGNMQLTVLTDRSQGGSSLRDGSLELMVHRRLLKDDGRGVSEPLMENGSGAWVRGRHLVLLDTAQAAAAGHRLLAEQEVLAPQVVLAPGGGAAYNLGAPPRTQFSGLRRDLPPSVHLLTLASWGPEMVLLRLEHQFAVGEDSGRNLSAPVTLNLRDLFSTFTITRLQETTLVANQLREAASRLKWTTNTGPTPHQTPYQLDPANITLEPMEIRTFLASVQWKEVDG
notes: human lysosomal alpha-mannosidase (hLAMAN, EC 3.2.1.24), gene MAN2B1; That vector probably adds the alpha-factor secretion signal; it speaks of a homodimer of the polypeptides A-E, (A-E)2; also called hLAMAN; MAN2B1; source: K. phaffii X33 (pPICZalpha), methanol-induced; aliquots of pellet and supernatant analysed, not purified
stoichiometry N: 2
